Test results reported in US20240124560A1.

Columns and labels:
Experiment in all cases: cell-based or functional assay
[1] = biological target: HIV-1 Env of NAC_JRFL (HIV-1)
[2] = biological target: HIV-1 Env of NAC_93IN905 (HIV-1)
[3] = biological target: HIV-1 Env of pseudovirus NAC_92TH021 (HIV-1)
[4] = biological target: HIV-1 Env of NIH-039_Ce2060 G9 (HIV-1)
[5] = biological target: HIV-1 Env of NIH-115_928.28 (HIV-1)
[6] = biological target: HIV-1 Env of NIH-060_Q769ENVd22 (HIV-1)
[7] = biological target: HIV-1 Env of pseudovirus NIH-102_6545.v4.c1 (HIV-1)
[8] = biological target: HIV-1 Env of pseudovirus NIH-059_Q461ENVe2 (HIV-1)
[9] = biological target: HIV-1 Env of pseudovirus NIH-041_BF1266.431a (HIV-1)
[10] = biological target: HIV-1 Env of pseudovirus NIH-023_ZM249M.PL1 (HIV-1)
[11] = biological target: HIV-1 Env of pseudovirus NAC_92BR020 (HIV-1)
[12] = biological target: HIV-1 Env of pseudovirus NIH-025_ZM109F.PB4 (HIV-1)
[13] = biological target: HIV-1 Env of NIH-023_ZM249M.PL1 (HIV-1)
[14] = biological target: HIV-1 Env of NIH-057_MS208.A1 (HIV-1)
[15] = biological target: HIV-1 Env of NIH-051_CNE17 (HIV-1)
[16] = biological target: HIV-1 Env of pseudovirus NIH-052_CNE30 (HIV-1)
[17] = biological target: HIV-1 Env of NIH-118_T255.34 (HIV-1)
[18] = biological target: HIV-1 Env of pseudovirus NIH-081_BJOX028000.10.3 (HIV-1)
[19] = biological target: HIV-1 Env of pseudovirus NIH-100_6041.v3.c23 (HIV-1)
[20] = biological target: HIV-1 Env of NIH-063_0330.v4.c3 (HIV-1)
[21] = biological target: HIV-1 Env of pseudovirus NIH-014_6244.13.B5.4567 (HIV-1)
[22] = biological target: HIV-1 Env of NIH-070_R2184.c04 (HIV-1)
[23] = biological target: HIV-1 Env of pseudovirus NIH-040_Ce703010054 2A2 (HIV-1)
[24] = biological target: HIV-1 Env of pseudovirus NIH-119_T211.9 (HIV-1)
[25] = biological target: HIV-1 Env of NAC_REJO.67 (HIV-1)
[26] = biological target: HIV-1 Env of pseudovirus NAC_WITO.33 (HIV-1)
[27] = biological target: HIV-1 Env of pseudovirus NIH-009_1006.11.C3.1601 (HIV-1)
[28] = biological target: HIV-1 Env of pseudovirus NHI-028_CAP210.E8 (HIV-1)
[29] = biological target: HIV-1 Env of pseudovirus NIH-030_HIV-0013095.2.11 (HIV-1)
[30] = biological target: HIV-1 Env of pseudovirus NIH-087_P1981 C5 3 (clade G) (HIV-1)
[31] = biological target: HIV-1 Env of pseudovirus NIH-007_CAAN5342.A2 (HIV-1)
[32] = biological target: HIV-1 Env of NIH-099_3301.v1.c24 (HIV-1)
[33] = biological target: HIV-1 Env of pseudovirus NIH-075_CNE8 (HIV-1)
[34] = biological target: HIV-1 Env of pseudovirus NAC_89.6 (HIV-1)
[35] = biological target: HIV-1 Env of pseudovirus NIH-069_C1080.c03 (HIV-1)
[36] = biological target: HIV-1 Env of pseudovirus NIH-089_3016.v5.c45 (clade D) (HIV-1)
[37] = biological target: HIV-1 Env of NIH-066_191084 B7.19 (HIV-1)
[38] = biological target: HIV-1 Env of NIH-102_6545.v4.c1 (HIV-1)
[39] = biological target: HIV-1 Env of pseudovirus NIH-082_X1193 c1 (clade G) (HIV-1)
[40] = biological target: HIV-1 Env of NIH-065_191955 A11 (HIV-1)
[41] = biological target: HIV-1 Env of NAC_DH12 (HIV-1)
[42] = biological target: HIV-1 Env of NIH-001_6535.3 (HIV-1)
[43] = biological target: HIV-1 Env of NIH-119_T211.9 (HIV-1)
[44] = biological target: HIV-1 Env of pseudovirus NIH-005_TRO.11 (HIV-1)
[45] = biological target: HIV-1 Env of pseudovirus NIH-072_R3265.c06 (HIV-1)
[46] = biological target: HIV-1 Env of NIH-061_Q259ENVd2.17 (HIV-1)

Chain of PGZL1 (antibody) (V domain): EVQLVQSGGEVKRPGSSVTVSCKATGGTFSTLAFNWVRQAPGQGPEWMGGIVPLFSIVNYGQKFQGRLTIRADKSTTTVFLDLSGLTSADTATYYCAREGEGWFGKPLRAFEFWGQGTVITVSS
Chain of PGZL1 (antibody) (VL): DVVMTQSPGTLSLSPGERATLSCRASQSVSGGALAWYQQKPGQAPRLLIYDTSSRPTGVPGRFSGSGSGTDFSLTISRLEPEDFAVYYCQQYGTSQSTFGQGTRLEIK

4E10 (antibody)
IC80 neutralization [1]: > 50 µg/mL
IC80 neutralization [2]: 0.472 µg/mL
neutralization IC50 [3]: 0.348 µg/mL
IC80 neutralization [4]: 5.1 µg/mL
IC80 neutralization [5]: 0.438 µg/mL
IC80 neutralization [6]: 6.57 µg/mL
neutralization IC50 [7]: 2.35 µg/mL
neutralization IC50 [8]: 2.33 µg/mL
neutralization IC50 [9]: 2.47 µg/mL
neutralization IC50 [10]: 1.44 µg/mL
neutralization IC50 [11]: 2.57 µg/mL
neutralization IC50 [12]: 0.703 µg/mL
IC80 neutralization [13]: 5.77 µg/mL
IC80 neutralization [14]: 2.86 µg/mL
IC80 neutralization [15]: 2.23 µg/mL
neutralization IC50 [16]: 4.17 µg/mL
IC80 neutralization [17]: 1.38 µg/mL
neutralization IC50 [18]: 0.45 µg/mL
neutralization IC50 [19]: 5.48 µg/mL
IC80 neutralization [20]: 4.17 µg/mL
neutralization IC50 [21]: 0.077 µg/mL
IC80 neutralization [22]: 0.762 µg/mL
neutralization IC50 [23]: 2.05 µg/mL
neutralization IC50 [24]: 1.2 µg/mL
IC80 neutralization [25]: 8.62 µg/mL
neutralization IC50 [26]: 0.435 µg/mL
neutralization IC50 [27]: 5.66 µg/mL
neutralization IC50 [28]: 0.847 µg/mL
neutralization IC50 [29]: 1 ng/mL
IC50 (µg/ml), TZM-bl cell neutralization assay, pseudovirus [30]: 0.099 µg/mL
neutralization IC50 [31]: 2.84 µg/mL
IC80 neutralization [32]: > 50 µg/mL
neutralization IC50 [33]: 0.087 µg/mL
neutralization IC50 [34]: 2.77 µg/mL
neutralization IC50 [35]: 0.328 µg/mL
IC50 (µg/ml), TZM-bl cell neutralization assay, pseudovirus [36]: 0.915 µg/mL
IC80 neutralization [37]: 9.04 µg/mL
IC80 neutralization [38]: 13.3 µg/mL
IC50 (µg/ml), TZM-bl cell neutralization assay, pseudovirus [39]: 0.359 µg/mL
IC80 neutralization [40]: 0.157 µg/mL
IC80 neutralization [41]: 4.89 µg/mL
IC80 neutralization [42]: 3.29 µg/mL
IC80 neutralization [43]: 5.08 µg/mL
neutralization IC50 [44]: 0.769 µg/mL
neutralization IC50 [45]: 0.491 µg/mL
IC80 neutralization [46]: 28.9 µg/mL

PGZL1 (antibody)
IC80 neutralization [1]: > 50 µg/mL
IC80 neutralization [2]: 2.2 µg/mL
neutralization IC50 [3]: 2.12 µg/mL
IC80 neutralization [4]: > 50 µg/mL
IC80 neutralization [5]: 5.45 µg/mL
IC80 neutralization [6]: > 50 µg/mL
neutralization IC50 [7]: > 50 µg/mL
neutralization IC50 [8]: 20.2 µg/mL
neutralization IC50 [9]: 48.8 µg/mL
neutralization IC50 [10]: 12.7 µg/mL
neutralization IC50 [11]: > 50 µg/mL
neutralization IC50 [12]: 7.36 µg/mL
IC80 neutralization [13]: > 50 µg/mL
IC80 neutralization [14]: 45.6 µg/mL
IC80 neutralization [15]: 48.6 µg/mL
neutralization IC50 [16]: 40.5 µg/mL
IC80 neutralization [17]: 13.2 µg/mL
neutralization IC50 [18]: 5.16 µg/mL
neutralization IC50 [19]: > 50 µg/mL
IC80 neutralization [20]: > 50 µg/mL
neutralization IC50 [21]: 1.31 µg/mL
IC80 neutralization [22]: > 50 µg/mL
neutralization IC50 [23]: 48.9 µg/mL
neutralization IC50 [24]: 13.2 µg/mL
IC80 neutralization [25]: 40.2 µg/mL
neutralization IC50 [26]: 3.56 µg/mL
neutralization IC50 [27]: 24.6 µg/mL
neutralization IC50 [28]: 16.7 µg/mL
neutralization IC50 [29]: 8 ng/mL
IC50 (µg/ml), TZM-bl cell neutralization assay, pseudovirus [30]: 1.39 µg/mL
neutralization IC50 [31]: 34 µg/mL
IC80 neutralization [32]: > 50 µg/mL
neutralization IC50 [33]: 0.247 µg/mL
neutralization IC50 [34]: 25.3 µg/mL
neutralization IC50 [35]: 1.73 µg/mL
IC50 (µg/ml), TZM-bl cell neutralization assay, pseudovirus [36]: 2.4 µg/mL
IC80 neutralization [37]: > 50 µg/mL
IC80 neutralization [38]: > 50 µg/mL
IC50 (µg/ml), TZM-bl cell neutralization assay, pseudovirus [39]: 5.31 µg/mL
IC80 neutralization [40]: 8.56 µg/mL
IC80 neutralization [41]: 19 µg/mL
IC80 neutralization [42]: 4.69 µg/mL
IC80 neutralization [43]: > 50 µg/mL
neutralization IC50 [44]: 2.88 µg/mL
neutralization IC50 [45]: 28 µg/mL
IC80 neutralization [46]: > 50 µg/mL

VRC01 (antibody)
IC80 neutralization [1]: 0.741 µg/mL
IC80 neutralization [2]: 0.28 µg/mL
neutralization IC50 [3]: 0.324 µg/mL
IC80 neutralization [4]: 0.45 µg/mL
IC80 neutralization [5]: 0.99 µg/mL
IC80 neutralization [6]: 0.092 µg/mL
neutralization IC50 [7]: > 50 µg/mL
neutralization IC50 [8]: 0.195 µg/mL
neutralization IC50 [9]: 0.028 µg/mL
neutralization IC50 [10]: 0.05 µg/mL
neutralization IC50 [11]: 0.059 µg/mL
neutralization IC50 [12]: 0.074 µg/mL
IC80 neutralization [13]: 0.197 µg/mL
IC80 neutralization [14]: 0.252 µg/mL
IC80 neutralization [15]: 0.904 µg/mL
neutralization IC50 [16]: 0.593 µg/mL
IC80 neutralization [17]: 0.925 µg/mL
neutralization IC50 [18]: 0.141 µg/mL
neutralization IC50 [19]: 0.023 µg/mL
IC80 neutralization [20]: 0.13 µg/mL
neutralization IC50 [21]: 0.045 µg/mL
IC80 neutralization [22]: 0.413 µg/mL
neutralization IC50 [23]: 0.139 µg/mL
neutralization IC50 [24]: 12.8 µg/mL
IC80 neutralization [25]: 0.414 µg/mL
neutralization IC50 [26]: 0.055 µg/mL
neutralization IC50 [27]: 0.145 µg/mL
neutralization IC50 [28]: > 50 µg/mL
neutralization IC50 [29]: 0.2 ng/mL
IC50 (µg/ml), TZM-bl cell neutralization assay, pseudovirus [30]: 0.203 µg/mL
neutralization IC50 [31]: 0.691 µg/mL
IC80 neutralization [32]: 0.463 µg/mL
neutralization IC50 [33]: 0.126 µg/mL
neutralization IC50 [34]: 0.807 µg/mL
neutralization IC50 [35]: 1.4 µg/mL
IC50 (µg/ml), TZM-bl cell neutralization assay, pseudovirus [36]: 0.058 µg/mL
IC80 neutralization [37]: 0.188 µg/mL
IC80 neutralization [38]: > 50 µg/mL
IC50 (µg/ml), TZM-bl cell neutralization assay, pseudovirus [39]: 0.098 µg/mL
IC80 neutralization [40]: 0.467 µg/mL
IC80 neutralization [41]: 0.898 µg/mL
IC80 neutralization [42]: 3.7 µg/mL
IC80 neutralization [43]: > 50 µg/mL
neutralization IC50 [44]: 0.231 µg/mL
neutralization IC50 [45]: 0.126 µg/mL
IC80 neutralization [46]: 0.449 µg/mL
